We go through 2 substances from patent publication US20140350088A1.

The assay addresses human C5a receptor (human) (UniProt P21730). Kind of assay: cell-based or functional assay.

Sequence of human C5a receptor (human) (P21730 whole entry): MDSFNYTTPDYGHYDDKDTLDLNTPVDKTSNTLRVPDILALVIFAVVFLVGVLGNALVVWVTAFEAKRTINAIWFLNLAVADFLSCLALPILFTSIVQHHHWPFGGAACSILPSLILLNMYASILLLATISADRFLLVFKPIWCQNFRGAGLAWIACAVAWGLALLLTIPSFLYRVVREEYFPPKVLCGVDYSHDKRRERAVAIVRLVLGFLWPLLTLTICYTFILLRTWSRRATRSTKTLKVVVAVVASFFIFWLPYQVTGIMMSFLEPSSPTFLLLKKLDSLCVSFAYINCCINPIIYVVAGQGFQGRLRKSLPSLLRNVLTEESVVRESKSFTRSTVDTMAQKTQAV

“mouse C5a (from UniProt P06684 679-755) (ligand)”: the half-maximal effective concentration (EC50) in chemotaxis assay of BA/F3/huC5aR cells amounted to 0.3 nM.

Regarding “recombinant human C5a (from UniProt P01031 678-751) (ligand)”, the half-maximal effective concentration (EC50) in chemotaxis assay of BA/F3/huC5aR cells came to 0.1 nM.
